The numbers were not newly measured in paper PMC4457300, which cites them from elsewhere.

The series deals with MLL MBM1 4-15 (Homo sapiens) (UniProt Q03164).

On to menin (from UniProt O00255), for which the Kd was 56 nM.
